Results reported in patent US9217139B2, “Extracellularly secreted nuclease” (JAPAN AGENCY FOR MARINE-EARTH SCIENCE AND TECHNOLOGY, priority 2010, dated 2015).

B1: NucL: nucleolytic enzyme of about 66.5 kDa secreted by Streptomyces sp. MBE174; SEQ ID NO. 4 (protein)
chain: MASQSVTRLAALTVAATCSAASVVVLGPPAHADSVRIHDIQGTTRISPYAGRQVADVPGVVTGVRDHGSSRGFWFQDPRPDDDPATSEGVFVFTGSAPGVEAGDAVTVSGTVSEFVPGGTASGNQSLTEITRPTVTVVSRGNPVPDPVVVSARSVPHAYAPAGDAAANGSVNALPLRPDRYALDYYESLEGMNVQVADARVVGATDPYTELWVTVKPGENASPRGGTVYGSRDAQNTGRLQIQTLGVPAGFPAADVGDTLAGATTGPLDYNQFGGYTLVARSLGTLTAGGLARETTREQHRDELSVATYNVENLDPSDGTFAAHAEAIVRNLRSPDIVSLEEIQDDNGATDDGTVTAGVTVGKLIDAVVAAGGPRYDWRSVDPVDKADGGQPGGNIRQVFLFDPRRVSFADRPGGDAVTATGVVKVRGKAALTHSPGRVDPANPAWLNSRKPLAGEFSFRGRTVFVIANHFASKGGDQGLTSQYQPPARSSETQRHLQATAVNTFVKQILAVQKNADVIALGDINDFEFSGTTERLEAGGALWSAVRSLPPGERYSYVYQGNSQVLDQILVSPSIRRGHLSYDSVHINAEFHDQISDHDPQVLRYRP
modifications: Streptmyces sp. MBE174
B2: NucS: low-molecular-weight nucleolytic enzyme, about 17 to 21 kDa, secreted by Streptomyces sp. MBE174; SEQ ID NO. 3 (protein)
chain: MPKLYARRRFAVLAALTGLIASAGLFHGPAASAALPTPVSAATARGYLASLKVAPENRTGYKRDLFPHWITQSGTCNTRETVLKRDGTNVVTDAACAATSGSWYSPFDGATWTAASDVDIDHLVPLAEAWDSGASAWTTAQRQAFANDLTRPQLLAVTDTVNQSKGDKDPAEWMPPRAAYHCTYVRAWVQVKYYYGLSVDTAEKTALTNRLAGC
modifications: Streptmyces sp. MBE174

Key:
Assay type in all cases: biochemical
[1] = thermal stability test (residual activity); conditions: heat treatment 30 minutes, 20 mM Tris/HCl pH 8.5, 1 mM MgCl2, 1 mM CaCl2; ice bath = 100 percent
Experimental: After heat treatment was conducted for 30 minutes at each temperature in 20 mM of Tris/HCl at pH 8.5 that contained 1 mM of MgCl2 and 1 mM of CaCl2, the residual activity was measured (referring to FIG. 6). An activity of an enzyme stored in an ice bath was regarded as 100 percent.

[2] = system: Circular plasmid DNA (pUC 18); test: degradation of circular plasmid DNA (agarose gel electrophoresis); conditions: single enzyme, 25 degrees Celsius, 15 minutes; NucL level up to 0.5 U
Experimental: Circular plasmid DNA (pUC 18) that had been purified by using a plasmid purification kit (HiSpeed (Registered Trademark) Plasmid Midi Kit; manufactured by QIAGEN, Cat no. 12643) was used as substrate to analyze nucleic-acid degradation styles of NucS and NucL. According to the standard specific activity measurement method, the enzyme solutions that were different in enzyme level as shown in the table below were added to a plasmid solution (about 2 to 10 μg). Then, a nucleic-acid degradation reaction was carried out at 25 degrees Celsius for 15 minutes. After the degradation, a reaction solution was subjected to a 1-percent agarose gel electrophoresis, and the degradation manner of the degraded DNA was analyzed.
Next, the enzyme level of NucL was increased to 0.5 U, and a test was conducted to examine if the plasmid could be completely degraded (referring to FIG. 13).

[3] = system: salmon DNA (double-stranded DNA) and thermally-denatured DNA (single-stranded DNA); test: reactivity test for single-stranded and double-stranded DNA; conditions: 15-minute standard specific activity measurement method
Experimental: With the use of a 15-minute standard specific activity measurement method, the reactivity of each enzyme was tested for salmon DNA (double-stranded DNA) that was dissolved at low temperatures, as well as for the same DNA (single-stranded DNA) that had been subjected to thermal denaturation at 95 degrees Celsius for 10 minutes. […] That is, it can be said that NucL is an enzyme that efficiently works on single-stranded DNA.

[4] = system: Deoxyribonucleic acid sodium salt from salmon testes; test: effects of pH on enzyme activity; conditions: 25 degrees Celsius, 15 minutes, 1 mM MgCl2, 1 mM CaCl2
Experimental: At each level of pH, the nucleic-acid degradation activity was measured at 25 degrees Celsius for 15 minutes by using, as substrate, Deoxyribonucleic acid sodium salt from salmon testes 0.4 mg/mL (manufactured by Sigma-Aldrich; Cat no. D1626-1G) in 20 mM of the following solution containing 1 mM of MgCl2 and 1 mM of CaCl2: 2-morpholino ethanesulfonic acid; monohydrate/NaOH(MES, pH 5.5 to 7.0); 3-morpholino propanesulfonic acid/NaOH (MOPS, pH 7 to 8); N-tris(hydroxymethyl)methyl-3-aminopropanesulfonic acid/NaOH (TAPS, pH 8 to 9); N-cyclohexyl-2-aminoethanesulfonic acid/NaOH (CHES, pH 9 to 9.5); or N-cyclohexyl-3-aminopropanesulfonic acid/NaOH (CAPS, 9.5 to 10).

[5] = system: linear double-stranded DNA (pUC18 plasmid cut by BamHI, SacI, SmaI); test: degradation pattern of linear double-stranded DNA; conditions: for degradation of linear double-stranded DNA regardless of the structure of DNA strand ends: 5'-protruding, 3'-protruding and flush ends; for efficiency of degradation of linear double-stranded DNA compared with circular DNA: comparison of FIGS. 12, 16, 17
From the text: With the use of the standard specific activity measurement method, as well as of a substrate obtained by making circular DNA (pUC18 plasmid) linear by using restriction nucleases BamHI (which generates a 5′-protruding end), SacI (which generates a 3′-protruding end), and SmaI (which generates a flush end), a degradation reaction took place with the use of NucS and NucL (referring to FIGS. 16 and 17).
Given the above results, it is presumed that NucL has a reaction style called an endo-exo type.

[6] = system: circular DNA (pUC18 plasmid); test: reaction styles in initial stage of degradation of circular DNA
Experimental: According to the standard specific activity measurement method, reaction styles in an initial stage of degradation reaction for circular DNA (pUC18 plasmid) of NucS and NucL were analyzed (referring to FIGS. 14 and 15). […] The degradation of circular plasmid DNA executed by the single strand-specific nucleolytic enzyme is considered to proceed as the molecular weight degreases due to accumulation of endo-type cleavage of single strands.

| Molecule | temperature until which the enzyme remained stable [1] [degrees Celsius] | degradation of circular plasmid DNA, supercoiled or relaxed type [2] | efficiency of degrading thermally-denatured DNA compared with native DNA [3] | optimum reaction pH [4] | reaction style presumed from linear DNA degradation [5] | degradation of linear double-stranded DNA regardless of the structure of DNA strand ends [5] | efficiency of degradation of linear double-stranded DNA compared with circular DNA [5] | reaction style in initial stage of degradation of circular DNA [6] |
| --- | --- | --- | --- | --- | --- | --- | --- | --- |
| B1 | ≤ 35 | could completely degrade the plasmids | about five times higher | around 8.8 | endo-exo type | can degrade | more efficiently | reaction pattern similar to a single strand-specific, endo-type nucleolytic enzyme |
| B2 | ≤ 45 | could completely degrade the plasmids | at the same level of efficiency | around 8.5 | – | can degrade | at the same level of efficiency | degradation activity of an endo-type style |
